Assay results reported in article PMC3974617 (Developmental cell, 2013).

Biological target: the molecule itself
Assay: negative-stain EM

B1: full-length recombinant human VPS41 (His-hVPS41) (natural protein, UniProt P49754 1-854, looked up)
chain: MAEAEEQETGSLEESTDESEEEESEEEPKLKYERLSNGVTEILQKDAASCMTVHDKFLALGTHYGKVYLLDVQGNITQKFDVSPVKINQISLDESGEHMGVCSEDGKVQVFGLYSGEEFHETFDCPIKIIAVHPHFVRSSCKQFVTGGKKLLLFERSWMNRWKSAVLHEGEGNIRSVKWRGHLIAWANNMGVKIFDIISKQRITNVPRDDISLRPDMYPCSLCWKDNVTLIIGWGTSVKVCSVKERHASEMRDLPSRYVEIVSQFETEFYISGLAPLCDQLVVLSYVKEISEKTEREYCARPRLDIIQPLSETCEEISSDALTVRGFQENECRDYHLEYSEGESLFYIVSPRDVVVAKERDQDDHIDWLLEKKKYEEALMAAEISQKNIKRHKILDIGLAYINHLVERGDYDIAARKCQKILGKNAALWEYEVYKFKEIGQLKAISPYLPRGDPVLKPLIYEMILHEFLESDYEGFATLIREWPGDLYNNSVIVQAVRDHLKKDSQNKTLLKTLAELYTYDKNYGNALEIYLTLRHKDVFQLIHKHNLFSSIKDKIVLLMDFDSEKAVDMLLDNEDKISIKKVVEELEDRPELQHVYLHKLFKRDHHKGQRYHEKQISLYAEYDRPNLLPFLRDSTHCPLEKALEICQQRNFVEETVYLLSRMGNSRSALKMIMEELHDVDKAIEFAKEQDDGELWEDLILYSIDKPPFITGLLNNIGTHVDPILLIHRIKEGMEIPNLRDSLVKILQDYNLQILLREGCKKILVADSLSLLKKMHRTQMKGVLVDEENICESCLSPILPSDAAKPFSVVVFHCRHMFHKECLPMPSMNSAAQFCNICSAKNRGPGSAILEMKK
stoichiometry N: 2
